Assay results reported in article PMC12236388, “Investigating the co-assembly of amphipathic peptides” (Faraday Discussions, 2025).

T1: K(FEFK)2K
T1 construct: designed amphipathic self-assembling peptide, L-amino acids; printed in short form K(FEFK)2K and written out here; forms beta-sheet-rich fibres and a hydrogel at pH 7; also called base peptide; peptide 1; source: synthetic peptide; bought: LifeTein Inc. (HCl salt, nominal purity 95%)
T1 peptide: KFEFKFEFKK

B1: (FEFK)2K (peptide)
peptide: FEFKFEFKK
notes: designed amphipathic peptide; printed in short form (FEFK)2K and written out here; source: synthetic peptide; bought: LifeTein Inc. (HCl salt, nominal purity 95%)

Target: T1, K(FEFK)2K
Assay: FRET or BRET; FITC/Dabcyl quenching in mixed hydrogels: base peptide 3.75 mg mL^-1 plus secondary peptide, total 7.5 mg mL^-1 (mass ratio 1:1), pH 7, water; powders mixed before dissolving, pH raised stepwise with NaOH; quenching percentage compared with base hydrogels at 3.75 and 7.5 mg mL^-1

fluorescence quenching percentage [%] | binding result (both partners purified) | Molecule
30 | – | K(FEFK)2K (peptide)
– | binds | B1
